# Laboratory results taken from the supplement of paper PMC10567573.
# B1: DULLARD (parent)
# chain: LVVFTASMEIYGSAVADKLDNSRS
# B2: MIA2 (parent)
# chain: DMVSNIELPTRIHEEVYFEPSSSK
# Variants of: B1
# Experiment: protein stability index of a GFP-peptide fusion (GPS, HEK-293T) (PSI 1-6); higher = more stable
# Conditions: c terminus: a fixed tail appended
# 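Note: lentivirally expressed fusions sorted by FACS into six bins by GFP to DsRed ratio, PSI derived from sequencing read proportions per bin multiplied by bin number.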
row,Variant,protein stability index
1,LEVFTASMEIYGSAVADKLDNSRS,2.46
2,LAVFTASMEIYGSAVADKLDNSRS,2.1
3,LKVFTASMEIYGSAVADKLDNSRS,1.78
4,LGVFTASMEIYGSAVADKLDNSRS,2.52
5,LCVFTASMEIYGSAVADKLDNSRS,1.61
6,LSVFTASMEIYGSAVADKLDNSRS,2.35
7,LIVFTASMEIYGSAVADKLDNSRS,2.18
8,LRVFTASMEIYGSAVADKLDNSRS,2.25
9,LDVFTASMEIYGSAVADKLDNSRS,3.02
10,LPVFTASMEIYGSAVADKLDNSRS,2.93
11,LLVFTASMEIYGSAVADKLDNSRS,1.99
12,LMVFTASMEIYGSAVADKLDNSRS,2.25
13,LQVFTASMEIYGSAVADKLDNSRS,1.96
14,LHVFTASMEIYGSAVADKLDNSRS,2.16
15,LWVFTASMEIYGSAVADKLDNSRS,3.1
16,LNVFTASMEIYGSAVADKLDNSRS,2.5
17,LTVFTASMEIYGSAVADKLDNSRS,1.72
18,NVVFTASMEIYGSAVADKLDNSRS,2.9
19,QVVFTASMEIYGSAVADKLDNSRS,2.52
20,GVVFTASMEIYGSAVADKLDNSRS,2.31
21,MVVFTASMEIYGSAVADKLDNSRS,2.29
22,TVVFTASMEIYGSAVADKLDNSRS,1.82

row,Variant,protein stability index
1,DVVFTASMEIYGSAVADKLDNSRS,2.44
2,FVVFTASMEIYGSAVADKLDNSRS,2
3,HVVFTASMEIYGSAVADKLDNSRS,1.19
4,PVVFTASMEIYGSAVADKLDNSRS,3.74
5,YVVFTASMEIYGSAVADKLDNSRS,2.57
6,EVVFTASMEIYGSAVADKLDNSRS,2.25
7,KVVFTASMEIYGSAVADKLDNSRS,2.09
8,AVVFTASMEIYGSAVADKLDNSRS,1.73
9,RVVFTASMEIYGSAVADKLDNSRS,2.49
10,CVVFTASMEIYGSAVADKLDNSRS,1.94
11,SVVFTASMEIYGSAVADKLDNSRS,1.94
12,VVVFTASMEIYGSAVADKLDNSRS,3.46
13,LVDFTASMEIYGSAVADKLDNSRS,3.23
14,LVYFTASMEIYGSAVADKLDNSRS,2.68
15,LVRFTASMEIYGSAVADKLDNSRS,2.23
16,LVKFTASMEIYGSAVADKLDNSRS,2
17,LVMFTASMEIYGSAVADKLDNSRS,3.28
18,LVWFTASMEIYGSAVADKLDNSRS,1.56
19,LVNFTASMEIYGSAVADKLDNSRS,2.75
20,LVQFTASMEIYGSAVADKLDNSRS,2.62
21,LVCFTASMEIYGSAVADKLDNSRS,2.03
22,LVLFTASMEIYGSAVADKLDNSRS,1.71

row,Variant,protein stability index
1,LVGFTASMEIYGSAVADKLDNSRS,2.75
2,LVPFTASMEIYGSAVADKLDNSRS,3.51
3,LVSFTASMEIYGSAVADKLDNSRS,1.86
4,LVAFTASMEIYGSAVADKLDNSRS,2.48
5,LVHFTASMEIYGSAVADKLDNSRS,2.21
6,LVTFTASMEIYGSAVADKLDNSRS,1.99
7,LVFFTASMEIYGSAVADKLDNSRS,2.15
8,LVEFTASMEIYGSAVADKLDNSRS,2.33
9,LVVITASMEIYGSAVADKLDNSRS,3.55
10,LVVRTASMEIYGSAVADKLDNSRS,2.14
11,LVVCTASMEIYGSAVADKLDNSRS,1.08
12,LVVPTASMEIYGSAVADKLDNSRS,3.61
13,LVVQTASMEIYGSAVADKLDNSRS,2.78
14,LVVATASMEIYGSAVADKLDNSRS,1.61
15,LVVHTASMEIYGSAVADKLDNSRS,2.78
16,LVVNTASMEIYGSAVADKLDNSRS,2.4
17,LVVDTASMEIYGSAVADKLDNSRS,2.05
18,LVVYTASMEIYGSAVADKLDNSRS,2.93
19,LVVETASMEIYGSAVADKLDNSRS,2.27
20,LVVWTASMEIYGSAVADKLDNSRS,3.77
21,LVVTTASMEIYGSAVADKLDNSRS,1.56
22,LVVGTASMEIYGSAVADKLDNSRS,2.24

row,Variant,protein stability index
1,LVVKTASMEIYGSAVADKLDNSRS,2.91
2,LVVSTASMEIYGSAVADKLDNSRS,2.34
3,LVVFMASMEIYGSAVADKLDNSRS,3.54
4,LVVFPASMEIYGSAVADKLDNSRS,1.66
5,LVVFFASMEIYGSAVADKLDNSRS,2.49
6,LVVFVASMEIYGSAVADKLDNSRS,3.31
7,LVVFQASMEIYGSAVADKLDNSRS,2.37
8,LVVFNASMEIYGSAVADKLDNSRS,1.76
9,LVVFEASMEIYGSAVADKLDNSRS,2
10,LVVFRASMEIYGSAVADKLDNSRS,2.6
11,LVVFHASMEIYGSAVADKLDNSRS,1.99
12,LVVFAASMEIYGSAVADKLDNSRS,2.22
13,LVVFDASMEIYGSAVADKLDNSRS,2.09
14,LVVFSASMEIYGSAVADKLDNSRS,3.15
15,LVVFTESMEIYGSAVADKLDNSRS,1.54
16,LVVFTGSMEIYGSAVADKLDNSRS,1.57
17,LVVFTCSMEIYGSAVADKLDNSRS,2.65
18,LVVFTHSMEIYGSAVADKLDNSRS,2.33
19,LVVFTDSMEIYGSAVADKLDNSRS,1.47
20,LVVFTISMEIYGSAVADKLDNSRS,4.3

# Variants of: B2
# Experiment: as above
# Conditions: c terminus: a fixed tail appended
row,Variant,protein stability index
1,DMVSNIELPTRIHEEVYFEPSVSK,3.95
2,DMVSNIELPTRIHEEVYFEPSMSK,3.81
3,DMVSNIELPTRIHEEVYFEPSFSK,3.37
4,DMVSNIELPTRIHEEVYFEPSLSK,2.58
5,DMVSNIELPTRIHEEVYFEPSASK,4.28
6,DMVSNIELPTRIHEEVYFEPSESK,4.13
7,DMVSNIELPTRIHEEVYFEPSGSK,3.85
8,DMVSNIELPTRIHEEVYFEPSPSK,4.02
9,DMVSNIELPTRIHEEVYFEPSDSK,4.25
10,DMVSNIELPTRIHEEVYFEPSCSK,3.89
11,DMVSNIELPTRIHEEVYFEPSTSK,4.03
12,DMVSNIELPTRIHEEVYFEPSQSK,4.13
13,DMVSNIELPTRIHEEVYFEPSHSK,4.35
14,DMVSNIELPTRIHEEVYFEPSKSK,3.9
15,DMVSNIELPTRIHEEVYFEPSNSK,4.12
16,DMVSNIELPTRIHEEVYFEPSWSK,3.17
17,DMVSNIELPTRIHEEVYFEPSRSK,3.73
18,DMVSNIELPTRIHEEVYFEPSYSK,3.08
19,DMVSNIELPTRIHEEVYFEPSISK,3.13
20,DMVSNIELPTRIHEEVYFWPSSSK,2.72
21,DMVSNIELPTRIHEEVYFSPSSSK,3.82
22,DMVSNIELPTRIHEEVYFPPSSSK,3.52
23,DMVSNIELPTRIHEEVYFQPSSSK,3.29
24,DMVSNIELPTRIHEEVYFYPSSSK,2.87
25,DMVSNIELPTRIHEEVYFTPSSSK,3.4
26,DMVSNIELPTRIHEEVYFRPSSSK,3.29

row,Variant,protein stability index
1,DMVSNIELPTRIHEEVYFVPSSSK,3.15
2,DMVSNIELPTRIHEEVYFEPNSSK,4.19
3,DMVSNIELPTRIHEEVYFEPGSSK,4.47
4,DMVSNIELPTRIHEEVYFEPFSSK,3.56
5,DMVSNIELPTRIHEEVYFEPMSSK,3.4
6,DMVSNIELPTRIHEEVYFEPLSSK,3.34
7,DMVSNIELPTRIHEEVYFEPQSSK,3.9
8,DMVSNIELPTRIHEEVYFEPKSSK,3.46
9,DMVSNIELPTRIHEEVYFEPRSSK,3.13
10,DMVSNIELPTRIHEEVYFEPASSK,3.71
11,DMVSNIELPTRIHEEVYFEPHSSK,3.97
12,DMVSNIELPTRIHEEVYFEPDSSK,4.56
13,DMVSNIELPTRIHEEVYFEPESSK,4.64
14,DMVSNIELPTRIHEEVYFEPPSSK,4.3
15,DMVSNIELPTRIHEEVYFEPYSSK,3.05
16,DMVSNIELPTRIHEEVYFEPISSK,4
17,DMVSNIELPTRIHEEVYFEPWSSK,3.38
18,DMVSNIELPTRIHEEVYFEPCSSK,3.71
19,DMVSNIELPTRIHEEVYFEPVSSK,3.94
20,DMVSNIELPTRIHEEVYFEPTSSK,3.75
21,DMVSNIELPTRIHEEVYFEPSSSW,2.52
22,DMVSNIELPTRIHEEVYFEPSSSV,3.51
23,DMVSNIELPTRIHEEVYFEPSSSL,3.84
24,DMVSNIELPTRIHEEVYFEPSSSM,3.57
25,DMVSNIELPTRIHEEVYFEPSSSY,3.32
26,DMVSNIELPTRIHEEVYFEPSSSI,2.98

row,Variant,protein stability index
1,DMVSNIELPTRIHEEVYFEPSSSA,3.64
2,DMVSNIELPTRIHEEVYFEPSSSN,4.17
3,DMVSNIELPTRIHEEVYFEPSSSF,3.28
4,DMVSNIELPTRIHEEVYFEPSSSP,4.08
5,DMVSNIELPTRIHEEVYFEPSSSE,4.11
6,DMVSNIELPTRIHEEVYFEPSSSG,4.55
7,DMVSNIELPTRIHEEVYFEPSSSH,3.56
8,DMVSNIELPTRIHEEVYFEPSSSS,3.95
9,DMVSNIELPTRIHEEVYFEPSSST,4.02
10,DMVSNIELPTRIHEEVYFEPSSSC,3.66
11,DMVSNIELPTRIHEEVYFEPSSSQ,4.89
12,DMVSNIELPTRIHEEVYFEPSSSR,3.85
13,DMVSNIELPTRIHEEVYFEPSSQK,4.41
14,DMVSNIELPTRIHEEVYFEPSSHK,3.96
15,DMVSNIELPTRIHEEVYFEPSSPK,3.67
16,DMVSNIELPTRIHEEVYFEPSSLK,3.49
17,DMVSNIELPTRIHEEVYFEPSSMK,3.29
18,DMVSNIELPTRIHEEVYFEPSSIK,3.89
19,DMVSNIELPTRIHEEVYFEPSSKK,3.65
20,DMVSNIELPTRIHEEVYFEPSSTK,3.92
21,DMVSNIELPTRIHEEVYFEPSSRK,3.56
22,DMVSNIELPTRIHEEVYFEPSSNK,3.98
23,DMVSNIELPTRIHEEVYFEPSSYK,4.18
24,DMVSNIELPTRIHEEVYFEPSSEK,5.16
25,DMVSNIELPTRIHEEVYFEPSSDK,4.84
26,DMVSNIELPTRIHEEVYFEPSSAK,3.2

row,Variant,protein stability index
1,DMVSNIELPTRIHEEVYFEPSSFK,3.11
2,DMVSNIELPTRIHEEVYFEPSSGK,4.28
3,DMVSNIELPTRIHEEVYFEPSSVK,3.82
4,DMVSNIELPTRIHEEVYFEPSSCK,4
5,DMVSNIELPTRIHEEVYFEPSSWK,3.08
6,DMVSNIELPTRIHEEVYFENSSSK,4.12
7,DMVSNIELPTRIHEEVYFEKSSSK,3.84
8,DMVSNIELPTRIHEEVYFELSSSK,2.72
9,DMVSNIELPTRIHEEVYFEDSSSK,4.6
10,DMVSNIELPTRIHEEVYFESSSSK,3.52
11,DMVSNIELPTRIHEEVYFEHSSSK,4.06
12,DMVSNIELPTRIHEEVYFECSSSK,3.42
13,DMVSNIELPTRIHEEVYFEYSSSK,2.99
14,DMVSNIELPTRIHEEVYFEESSSK,4.28
15,DMVSNIELPTRIHEEVYFEASSSK,3.69
16,DMVSNIELPTRIHEEVYFEMSSSK,1.88
17,DMVSNIELPTRIHEEVYFEFSSSK,2.42
18,DMVSNIELPTRIHEEVYFEGSSSK,4.16
19,DMVSNIELPTRIHEEVYFETSSSK,3.62
20,DMVSNIELPTRIHEEVYFERSSSK,4.18
21,DMVSNIELPTRIHEEVYFEISSSK,3.02
22,DMVSNIELPTRIHEEVYFEWSSSK,2.63
23,DMVSNIELPTRIHEEVYFEVSSSK,2.56
24,DMVSNIELPTRIHEEVYFEQSSSK,4.02
